Results: article PMC12804074

Legend:
[1] = molecular target: (NFS1–ISD11–ACP–ISCU2)2 complex (human) (UniProt Q9HD34); experiment: ITC
[2] = molecular target: FDX2ALC (ferredoxin-2 labelled with ALC 480) (human) (UniProt Q6P4F2); experiment: flow-induced dispersion analysis
[3] = molecular target: FXNALC (frataxin labelled with ALC 480) (human) (UniProt Q16595); experiment: flow-induced dispersion analysis
[4] = molecular target: cysteine desulfurase complex (NFS1–ISD11–ACP)2 (human) (UniProt Q9HD34); experiment: ITC

Chain of ferredoxin-2 (FDX2), wild type (Q6P4F2 53-183): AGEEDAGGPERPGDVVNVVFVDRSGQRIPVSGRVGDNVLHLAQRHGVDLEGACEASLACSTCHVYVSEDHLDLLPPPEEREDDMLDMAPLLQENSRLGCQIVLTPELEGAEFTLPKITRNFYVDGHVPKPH
Chain of FDX2ALC (ferredoxin-2 labelled with ALC 480) (human) (Q6P4F2 53-183): as above

ferredoxin-2 (FDX2), wild type (from UniProt Q6P4F2 53-183) (natural protein)
KD of the tight-binding exothermic mode [1]: 102 nM

frataxin (FXN) (from UniProt Q16595 42-210) (natural protein)
Kd [1]: 146 nM

(NFS1–ISD11–ACP–ISCU2)2 complex (from UniProt Q9HD34 1-91; O14561 69-156; Q9H1K1-1 35-167)
Kd [2]: 16000 nM
Kd [3]: 102 nM

FDX2 D179A (from UniProt Q6P4F2 53-183) (natural protein)
Kd [4]: 39 nM
